{"source": "patent US20190309044A1", "about": "“POLYPEPTIDES AND USES THEREOF AS A DRUG FOR TREATMENT OF AUTOIMMUNE DISORDERS” (Compugen Ltd., priority 2017, published 2019)", "molecules": {"B1": {"name": "C1ORF32 ECD-Fc (SEQ ID NO:42): human-mouse fusion protein: human C1ORF32 ECD fused to mouse immunoglobulin Fc (SEQ ID NO:42) (protein)", "chain": "LQVTVPDKKKVAMLFQPTVLRCHFSTSSHQPAVVQWKFKSYCQDRMGESLGMSSTRAQSLSKRNLEWDPYLDCLDSRRTVRVVASKQGSTVTLGDFYRGREITIVHDADLQIGKLMWGDSGLYYCIITTPDDLEGKNEDSVELLVLGRTGLLADLLPSFAVEIMGSENLYFQGSGEPRGPTIKPCPPCKCPAPNLLGGPSVFIFPPKIKDVLMISLSPIVTCVVVDVSEDDPDVQISWFVNNVEVHTAQTQTHREDYNSTLRVVSALPIQHQDWMSGKEFKCKVNNKDLPAPIERTISKPKGSVRAPQVYVLPPPEEEMTKKQVTLTCMVTDFMPEDIYVEWTNNGKTELNYKNTEPVLDSDGSYFMYSKLRVEKKNWVERNSYSCSVVHEGLHNHHTTKSFSRTPGK", "modifications": "Fusion protein human C1ORF32-ECD fused to mouse IgG2a Fc"}}, "assay_type_in_all_cases": "in vivo, mouse", "key": {"SJL/J mice [1]": {"system": "SJL/J mice", "test": "Adoptive transfer R-EAE, clinical score", "description": "Female SJL/J mice were primed with 50 μg of PLP139-151/CFA according to the standard laboratory protocol on day 0. On day 8 post disease induction, the inguinal lymph nodes were collected and the total lymph node cells were re-activated in culture in the presence of PLP139-151 for 3 days. At the end of culture, cells were collected and transferred into naive recipient SJL/J mice.\na. Mice were shaved (about a 1 in.×1 in, square on the back between the hind flanks) and injected with CFA/PLP139-151 emulsion at 100 μl per mouse s.c., divided between three spots on the back and flanks. Peptide and final dose given per mouse: 50 μg of PLP139-151 peptide on day 0.\nb. On day 8 post priming with PLP139-151/CFA, the draining inguinal lymph nodes were collected, and single cell suspensions were prepared. Total lymph node cells were cultured at a density of 8×10^6 cells per ml in the HL-1 medium plus PLP139-151 peptide (20 μg/ml) in T75 flasks.\nc. After 3 days of culture, the PLP139-151 reactivated cells were collected and counted using an hemacytometer. The number of total viable cells and the number of blast cells was determined. […]\nf. Mice were scored on the indicated days, on a 0-5 disease score scale per standard laboratory protocol: 0, no abnormality; 1, limp tail; 2, limp tail and hind limb weakness; 3, hind limb paralysis; 4, hind limb paralysis and forelimb weakness; and 5, moribund. […]"}, "[2]": {"system": "total splenocytes and lymph node cells", "test": "Ex vivo recall responses, adoptive transfer R-EAE", "settings": "day 45; treatment from onset of remission", "description": "On day 45 (unless otherwise indicated) following cell transfer, spleen and cervical lymph nodes or CNS from 3 representative mice of each group were collected, and the total cells were activated ex vivo at 0.5×10^6 cells per well with either OVA323-339, PLP139-151, PLP178-191, MBP84-104 (20 ug/ml), or anti-CD3 (1 ug/ml). Two sets of cultures were set up side-by-side. One set was pulsed with 1uCi of tritiated thymidine at 24 hours and harvested at 72 hours to determine cell proliferation. In the second set of cultures, supernatants were collected at 72 hours and tested for peptide-specific cytokine production as determined by LiquiChip."}, "SJL/J mice [3]": {"system": "SJL/J mice", "test": "Trafficking of transferred cells into the CNS by flow cytometry, adoptive transfer R-EAE", "settings": "day +10 post cell transfer", "description": "PLP139-151 sensitized cells were generated as described in Materials and Methods (cell counts in the reactivation culture are presented in Table 2) and labeled with PBSE (4 uM) before transfer to naïve mice. In study “Cgen data” (FIG. 12), disease was induced in recipient mice (n=10 per group) by i.v. transfer of 5×10^6 blast cells to each recipient mouse. A relatively large number of transferred cells were used in order to allow detection of the transferred cells by flow cytometry analysis at the end of the study. Mice were split into Control Ig and C1ORF32 ECD-Fc (SEQ ID NO:42) treatment groups, receiving 100 ug/dose intraperitoneal injection three times per week for 2 weeks. On Day +14 after cell transfer, 5 representative mice from each group were selected for analysis of trafficking of transferred cells into the CNS. Spleens, cervical lymph nodes, and CNS were collected, and the number of PBSE- or PBSE+/CD45+/CD3+/CD4+ T cells was analyzed by flow cytometric analysis.\nAn additional experiment (designated “MYC48 FACS”, FIG. 13) was performed using an alternative staining follow-up approach. […] To evaluate C1ORF32 ECD-Fc (SEQ ID NO:42) effect on immune cell trafficking to the CNS, spleens, cervical lymph nodes, and CNS cells collected form 5 mice on day +10 post cell transfer, and the number of transferred CD45hi PBSE+ or GFP+ cells was analyzed by flow cytometry. […]"}, "SJL/J mice [4]": {"system": "SJL/J mice", "test": "PLP139-151/CFA R-EAE upon IL-10 or TGFb blockade, clinical score", "description": "SJL/J mice were purchased from Harlan and primed with PLP139-151/CFA per the standard protocol, as described in 21.1.2 Methods, above). At disease remission the mice were split into 6 different treatment groups (n=5) as follows:\nMice were treated with Control Ig (mouse IgG2a) or C1ORF32 ECD-Fc (SEQ ID NO:42) at 100 ug/dose, each via an i.p. injection. This was followed with a second i.p. injection on the same day of either anti-IL-10 (rat IgG1), rat IgG1 (control Ab), or anti-TGFβ (mouse IgG1) at 100 ug/dose, each. All treatments were given 3×/wk for 2 wks, beginning on day +20 (onset of disease remission) and until day +31 post disease induction. All mice were followed for disease scores until day 44 post disease induction. On day 44, mice were sacrificed and analyzed for total T cell and Treg cell numbers in spleen and CNS. […]\nMice were followed for disease and scored on a 0-5 scale per standard lab protocol as follows: 0, no abnormality; 1, limp tail; 2, limp tail and hind limb weakness; 3, hind limb paralysis; 4, hind limb paralysis and forelimb weakness; and 5, moribund. Dead mice were scored with a score of 5 on the day of death only, and were not further scored on the next days."}}, "note": "Entries after “also recorded” stand apart in the source; their conditions may differ.", "data": [{"molecule": "B1", "values": [{"measurement": "disease induction / development", "setting": "SJL/J mice [1]; 100 ug/dose i.p. 3x/wk 2 wks from time of cell transfer", "value": "complete abolishment of disease induction; also recorded: abolished disease development"}, {"measurement": "clinical signs of the disease", "setting": "SJL/J mice [1]; 100 ug/mouse i.p. 3x/wk 2 wks from onset of disease remission", "value": "robust inhibition of clinical signs"}, {"measurement": "recall responses, cellular proliferation of splenocytes and lymph node cells", "setting": "[2]", "value": "decreased level of cellular proliferation"}, {"measurement": "number of total or activated transferred T cells in spleen and cervical lymph nodes", "setting": "SJL/J mice [3]", "value": "No change"}, {"measurement": "beneficial effect on disease", "setting": "SJL/J mice [4]; concomitant administration of anti-IL-10", "value": "abrogated the beneficial effect"}, {"measurement": "beneficial effect on disease", "setting": "SJL/J mice [4]; concomitant administration of anti-TGF", "value": "abrogated the beneficial effect"}]}]}
